Reference: patent US7977317B2, “Compositions and methods for modulating blood-brain barrier transport” (Raptor Pharmaceutical Inc., priority 2001, dated 2011)

B1: p97: recombinant human melanotransferrin (p97), provided by Synapse Technologies (protein, UniProt P08582 20-709, looked up)
Melanotransferrin: GMEVRWCATSDPEQHKCGNMSEAFREAGIQPSLLCVRGTSADHCVQLIAAQEADAITLDGGAIYEAGKEHGLKPVVGEVYDQEVGTSYYAVAVVRRSSHVTIDTLKGVKSCHTGINRTVGWNVPVGYLVESGRLSVMGCDVLKAVSDYFGGSCVPGAGETSYSESLCRLCRGDSSGEGVCDKSPLERYYDYSGAFRCLAEGAGDVAFVKHSTVLENTDGKTLPSWGQALLSQDFELLCRDGSRADVTEWRQCHLARVPAHAVVVRADTDGGLIFRLLNEGQRLFSHEGSSFQMFSSEAYGQKDLLFKDSTSELVPIATQTYEAWLGHEYLHAMKGLLCDPNRLPPYLRWCVLSTPEIQKCGDMAVAFRRQRLKPEIQCVSAKSPQHCMERIQAEQVDAVTLSGEDIYTAGKTYGLVPAAGEHYAPEDSSNSYYVVAVVRRDSSHAFTLDELRGKRSCHAGFGSPAGWDVPVGALIQRGFIRPKDCDVLTAVSEFFNASCVPVNNPKNYPSSLCALCVGDEQGRNKCVGNSQERYYGYRGAFRCLVENAGDVAFVRHTTVFDNTNGHNSEPWAAELRSEDYELLCPNGARAEVSQFAACNLAQIPPHAVMVRPDTNIFTVYGLLDKAQDLFGDDHNKNGFKMFDSSNYHGQDLLFKDATVRAVPVGEKTTYRGWLGLDYVAALEGMSSQQC
B2: lactoferrin: lactoferrin (Lf), LRP ligand used as competitor (protein, UniProt P02788 20-710, looked up)
Lactotransferrin: GRRRSVQWCAVSQPEATKCFQWQRNMRKVRGPPVSCIKRDSPIQCIQAIAENRADAVTLDGGFIYEAGLAPYKLRPVAAEVYGTERQPRTHYYAVAVVKKGGSFQLNELQGLKSCHTGLRRTAGWNVPIGTLRPFLNWTGPPEPIEAAVARFFSASCVPGADKGQFPNLCRLCAGTGENKCAFSSQEPYFSYSGAFKCLRDGAGDVAFIRESTVFEDLSDEAERDEYELLCPDNTRKPVDKFKDCHLARVPSHAVVARSVNGKEDAIWNLLRQAQEKFGKDKSPKFQLFGSPSGQKDLLFKDSAIGFSRVPPRIDSGLYLGSGYFTAIQNLRKSEEEVAARRARVVWCAVGEQELRKCNQWSGLSEGSVTCSSASTTEDCIALVLKGEADAMSLDGGYVYTAGKCGLVPVLAENYKSQQSSDPDPNCVDRPVEGYLAVAVVRRSDTSLTWNSVKGKKSCHTAVDRTAGWNIPMGLLFNQTGSCKFDEYFSQSCAPGSDPRSNLCALCIGDEQGENKCVPNSNERYYGYTGAFRCLAENAGDVAFVKDVTVLQNTDGNNNEAWAKDLKLADFALLCLDGKRKPVTEARSCHLAMAPNHAVVSRMDKVERLKQVLLHQQAKFGRNGSDCPDKFCLFQSETKNLLFNDNTECLARLHGKTTYEKYLGPQYVAGITNLKKCSTSPLLEACEFLRK

Legend:
[1] = test system: bovine brain capillary endothelial cell monolayers; experiment: Competition of [125I]-p97 binding on bovine brain capillary endothelial cell monolayers; conditions: [125I]-p97 25 nM, 2 h at 4° C., competitor 7.5 micromolar (FIG. 3)
Experimental: FIG. 3. Binding of p97 on bovine brain capillary endothelial cell monolayers. Binding p97 was performed with BBCECs that were pre-incubated 2 hrs in Ringer-Hepes to avoid any interference from the astrocytes. For the binding experiments, cells were incubated for 2 h at 4° C. in Ringer/Hepes in the presence of [^125I]-p97 (25 nM) and 7.5 micromolar concentrations of cold-p97, transferrin or lactoferrin, respectively. At the end of the incubation, the filters were gently washed at 4° C. three times with 4 ml of cold-PBS. Then the associated radioactivity of endothelial cells was determined by removing the membrane of the culture insert and counting it in a gamma counter.
B. Binding studies of p97. Binding of p97 was performed with BBCECs and Rat Brain Endothelial Cells that were pre-incubated 2 hrs in Ringer/Hepes to avoid any interference from the astrocytes.
For the binding experiments, cells were incubated for 2 h at 4° C. in Ringer/Hepes in the presence of [^125I]-p97 (25 nM) and increasing concentrations of cold-p97 or high (7.5 micromolar) concentrations of transferrin or lactoferrin. At the end of the incubation, the filters were gently washed at 4° C. three times with 4 ml of cold-PBS. Then the associated radioactivity of endothelial cells was determined by removing the membrane of the culture insert and counting it in a gamma counter.

[2] = test system: RBE4 cells; experiment: Competition of [125I]-p97 binding on rat brain endothelial cells (RBE4); conditions: competitor 10 micromolar, 2 hrs at 4° C. (FIG. 4)
Experimental: FIG. 4. Binding of p97 on rat brain endothelial cells. Binding p97 was performed with RBE4 that were pre-incubated 2 hrs in Ringer-Hepes. For the binding experiments, cells in 24-well microplates were incubated for 2 h at 4° C. in Ringer/Hepes in the presence of [^125I]-p97 (25 nM) and 10 micromolar concentrations of cold-p97, transferrin or lactoferin, respectively. At the end of the incubation, the cells were gently washed at 4° C. three times with 4 ml of cold-PBS. RBE4 cells were then lysed with Triton X-100 and the associated radioactivity of with cell lysates was determined.
RBE4 cells were grown in monolayers in 24 wells plastic tissue culture flasks at 37° C. under 5% CO2 in minimum essential medium Alpha and Ham's F10 (1:1) supplemented with 10% heat inactivated fetal bovine serum. For p97 binding experiments, RBE4 cells were pre-incubated at 37° C. for 2 hrs in Ringer/Hepes. ^125I-p97 in 200 μl of Ringer/Hepes was added to RBE4 cells for 2 hrs at 4° C. in the presence or absence of high concentration of cold-p97, human holo-transferrin or human lactoferrin. After the incubation, the cells were washed 4 times with PBS and the ^125I-p97 associated with the cells was measured.

[3] = test system: BBCEC monolayers; experiment: Accumulation of ligands in BBCEC monolayers; assay type: cell-based, bovine; conditions: for Accumulation in the cell monolayer of heat denatured ligand compared to normal ligand: ligand boiled 30 mins, 37° C. (FIG. 7)
Experimental: (§1) FIG. 7 illustrates the results of experiments where the ligands p97, Lf and Tf were heated or not heated prior to the binding study. In all cases, binding experiments were conducted in the transwell apparatus as described previously, with the exception that binding was conducted at either 4° C. or at 37° C. For the 37° C. trial, a separate experiment was conducted where the ligand was boiled for 30 mins then rapidly cooled prior to administration on the transwell plates.
FIG. 13 illustrates the transcytosis and accumulation of p97 and transferrin in BBCEC monolayers. FIG. 13a, Transcytosis experiments were performed at 37° C. (solid bars) or 4° C. (white bars). [^125I]-p97 or bovine [^125I]-holo-transferrin (1 mg/ml) was added to the upper side of the cell-covered filter. At the end of the experiment, radiolabelled proteins were measured in the lower chamber of each well by TCA precipitation (n=4). Controls were also performed at 37° C. with denatured [^125I]-p97 or bovine [^125I]-holo-transferrin boiled for 30 min (grey bars) (n=2); FIG. 13b, Biospecific interaction analysis was performed with native or boiled p97 for the indicated times. MAb L235 (5 μg) was immobilized on a sensor chip (SM5) using standard procedures incorporating NHS, EDC and ethanolamine. Native and boiled p97 (5 to 30 min) diluted at 1 mg/ml in Ringer/Hepes was cooled and injected into the BIAcore. The surface plasmon resonance response obtained for native p97 and boiled p97 was plotted (in relative units (RU)) as a function of time; FIG. 13c, The accumulation of both proteins into BBEC cells were also measured. Briefly, after incubation at 37° C. (solid bars) or 4° C. (white bars) with either [^125I]-protein, cells were washed four times with cold PBS. Accumulation of both denatured proteins (grey bars) was also measured at 37° C. Filters were then removed, and the radioactivity associated with the cells was quantified (n=3).
as §1, with “In” for “FIG. 7 illustrates the results of experiments where the ligands p97, Lf and Tf were heated or not heated prior to the binding study. In”

Molecule	Inhibition of [125I]-p97 binding to BBCECs [1]	Inhibition of [125I]-p97 binding to RBE4 cells [2]	Accumulation in the cell monolayer of heat denatured ligand compared to normal ligand [3]	Accumulation in BBCE cells ([3]; native proteins (FIG. 13c)) [μg/cm2]	Accumulation of Lf compared with p97 at the end of the experiment ([3]; FIG. 7)
B1	competitively inhibited	competitively inhibit	significantly lower accumulation	5.7	
B2	competitively inhibited	competitively inhibit	significantly lower accumulation		almost twice as high
